According to US20240352121A1, “LAIR-1 AGONISTIC ANTIBODIES AND METHODS OF USE THEREOF” (NEXTCURE, INC., priority 2023, published 2024):

Columns and labels:
human LAIR-1 = molecular target: T1, human LAIR-1 (Homo sapiens, UniProt Q6GTX8, D63E/L98P/R92S/S123T); assay: Cell binding to human LAIR-1 cells by flow cytometry; conditions: UT-140 cells
T1 construct: expressed in transfected cells
T1 sequence (Q6GTX8 22-287 D63E/R92S/L98P/S123T): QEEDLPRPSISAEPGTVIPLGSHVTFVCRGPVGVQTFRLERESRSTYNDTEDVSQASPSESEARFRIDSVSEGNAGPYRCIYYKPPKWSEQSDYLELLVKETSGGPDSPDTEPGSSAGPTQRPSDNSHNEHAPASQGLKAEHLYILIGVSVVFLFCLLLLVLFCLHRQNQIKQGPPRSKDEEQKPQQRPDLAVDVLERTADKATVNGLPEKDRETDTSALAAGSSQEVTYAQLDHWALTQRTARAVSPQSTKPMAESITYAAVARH
Procedure: FIGS. 21A-21B display LAIR-1 binding properties including h11B3 LAIR-1 mAbs binding to cells expressing human LAIR-1 or cynomolgus LAIR-1 as measured by flow cytometry. The h11B3 LAIR-1 mAbs include a variable light chain of SEQ ID NO: 16 and a variable heavy chain of SEQ ID NO: 21, as shown for Anti-LAIR-1 Variant 6 in Table 1 herein. […] Cells were incubated for 30 min on ice with titrated concentrations of h11B3. AF647 conjugated secondary antibody was used at 1:2000 dilution. […] Cells were incubated for 30 min on ice with titrated concentrations of h11B3. AF647 conjugated secondary antibody was used at 1:2000 dilution.
For cell binding assays, 5e4 UT-140 cells or mouse LAIR-1-transfected 293T cells per well were plated in 200 μL PBS in a 96-well round bottom plate, centrifuged for 4 minutes at 500×g for a single wash, and blocked for 10 minutes on ice with flow cytometry buffer (PBS+2% FBS+0.1 mM EDTA) containing 1:50 dilution of TruStain™ Fc block (Biolegend, San Diego, CA). Cells were subsequently stained for 30 min on ice with titrated concentrations of soluble AF647-labeled LAIR-1 mAb or AF647-labeled isotype control. Cells were then washed 3 times as previously described and binding was measured by flow cytometry using an Attune NXT flow cytometer. […] GFP expression was measured by flow cytometry using an Attune NXT Flow Cytometer.

[1] = test system: healthy T cells or NK cells; assay: Ex vivo killing of T cells or NK cells of a VEN/AZA-treated AML patient; type: cell-based, human; conditions: same patient sample
Procedure: Ex vivo killing of VEN/AZA-treated AML patient leukemic cells (FIG. 7A) or T cells or NK cells (FIG. 7B). Values normalized to vehicle control. Lines represent linear regression of NC525 concentration versus normalized cell killing. […] FIGS. 7D and 7E show in vivo leukemic growth as measured by whole-body luminescence of MV4-11-luciferase cells (FIG. 7D) or survival (FIG. 7E) of CDX mice treated with 10 mg/kg isotype control (gray) or NC525 (red) or 100 mg/kg VEN (pink) or 0.5 mg/kg AZA (blue) or combination therapy (green or yellow, respectively). BLoD, below limit of detection. n=9 mice per group. P values determined by 2-way ANOVA or log-rank (Mantel-Cox) test, respectively. FIGS. 7F and 7G show leukemic growth in the blood (FIG. 7F) and in the spleen and BM (FIG. 7G) at week 8 after transplant of AML PDX mice treated with vehicle (gray), VEN/AZA (blue), NC525 (red), or VEN/AZA plus NC525 (green). n=5-10 mice per group. AML cells in spleen and BM compared from 4-5 mice per group. Data are shown as the mean±SEM. P values determined by 2-way ANOVA or 1-way ANOVA with multiple comparisons.

[2] = Pharmacokinetic study in balb/c mice; type: in vivo; conditions: 10 mg/kg intraperitoneal, blood serum
Procedure: Balb/c mice were intraperitoneally injected with 10 mg/kg h11B3. Mice were subsequently bled by cheek-vein puncture at the indicated time points. Blood serum was isolated by centrifugation at 2500 RCF in serum-collection tubes. Blood serum was tested for circulating h11B3 by Universal PK assay. Briefly, h11B3 in mouse serum was captured using a biotin-labeled anti-human IgG inside a nanoliter column of a Gyrolab CD. Alexa Fluor labeled anti-human IgG was used for detection. The quantitative dynamic range was (500-100,000) ng/ml (LLOQ-ULOQ). The standard curve and controls were prepared in pooled Balb/C serum (Biochemed). Standard curve, controls, and samples were diluted 1:10-fold (MRD) in buffer. Samples above the upper limit of quantitation (100,000 ng/mL) were brought within range by diluting them in Rexiip buffer. The laser-induced fluorescence detection technique detected the amount of analyte present in the sample. The standard curve signals were used to interpolate unknown sample concentrations. All samples were analyzed in duplicates and assigned an acceptance criteria (±20% CV and Bias). Gyrolab Evaluator software was used to perform 4PL with Y weighing non-linear regression to interpolate unknown sample concentrations.

[3] = test system: blood leukocytes from healthy (non-AML) donors; assay: Ex vivo depleting assay, healthy donor blood leukocytes; type: cell-based, human; conditions: even in the presence of collagen ECM
Procedure: Fresh whole blood was RBC-depleted using the EasySep™ RBC Depletion Reagent (StemCell, Vancouver, BC) following the manufacturer's protocol. Alternatively, frozen PBMCs were thawed in pre-warmed cRPMI media. Cell number was determined by VI-Cell XR cell counter. 2e5 cells per well were plated into 96-well plates lacking or containing 50 μg/mL pre-coated human Collagen I (StemCell, Vancouver, BC) in 200 μL of cRPMI containing 10 μg/mL of soluble LAIR-1 mAb or isotype control antibody (NP782 (NextCure, Beltsville, MD) or InVivoMAb recombinant human IgG1 Fc (BioXcell, Lebanon, NH)). Plates were centrifuged at 100×g for 2 minutes, then incubated for 20 hours at 37° C. in a TC incubator. At the end of incubation period, plates were centrifuged at 500×g for 4 min. Cells were resuspended and then transferred to a 96-well round-bottom plate for cell staining and flow cytometry as described above.

healthy CD34+ cells = assay: NC525 clustering of LAIR-1 in healthy CD34+ cells; type: cell-based, human

B1: LAIR-1 mAb: humanized agonist anti-LAIR-1 mAb, IgG1 backbone; h11B3 VL-2 (SEQ ID NO: 16), h11B3 VH-3 (SEQ ID NO: 27) (antibody, V domains shown)
VH: EVQLVESGGGLVQPGGSLKLSCAASGFTFNTNAMYWVRQAPGKGLEWVGRIRSKSSNYATYYAASVKGRFTISRDDSKNTLYLQMNSLKTEDTAVYYCVRGGSGFFAYWGQGTLVTVSS
VL: DIQMTQSPSSLSASLGDRVTITCKASEDIYIRLAWYQQKPGKAPRLLISTATSLETGVPSRFSGSGSGTDYTFTISSLQPEDIATYYCQQYWSTPYTFGGGTRLEIK
modifications: IgG1 constant regions; Synthetic: h11B3 VH-3; Synthetic: h11B3 VL-2
binding to human LAIR-1 (human LAIR-1): specifically binds
impact on healthy T cells or NK cells [1]: no impact
Tmax [2]: 8 h
depletion of blood leukocytes [3]: did not deplete
changes in signaling activity (healthy CD34+ cells): minimal changes
